Results published in publication PMC7933433.

How the values were obtained:
[1] = molecular target: PGR5a fused to the N-terminal part of YFP (PGR5a-YFP^n) (cucumber (Cucumis sativus L.)); test: split reporter (BiFC, NanoBiT); halves of YFP, transient expression in N. benthamiana leaves, confocal microscopy on the third day; also after 30 min in the dark (state 1) or red light (state 2)
[2] = molecular target: cyt b6f complex of cucumber thylakoid membranes (cucumber (endogenous in cucumber thylakoids)); test: native gel or EMSA; blue native PAGE of thylakoid membranes (cucumber or tobacco) dissolved in an equal volume of 2% DM, 4 °C, followed by immunoblotting with anti-PGR5; leaf discs also arrested in state 1 or state 2, dark or red light, or incubated with Put

Row | Substance | YFP fluorescence intensity (BiFC), stronger in state 2 than in state 1 [1] [%] | other results
1 | Lhcb3 fused to the C-terminal part of YFP (Lhcb3-YFP^c) (natural protein) | 64 | –
2 | PetC fused to the C-terminal part of YFP (PetC-YFP^c) (natural protein) | – | YFP fluorescence intensity (BiFC), stronger in state 1 than in state 2 [1]: 64%
3 | PsaH fused to the C-terminal part of YFP (PsaH-YFP^c) (natural protein) | 67 | –
4 | native PGR5 protein of cucumber thylakoid membranes (natural protein) | – | PGR5 abundance in the cyt b6f complex, higher in state 1 than in state 2 [2]: 40%
